This note sets out measurements from patent publication US20240342320A1 (GUANGZHOU GENBIONOVA MEDICAL TECHNOLOGY, published 2024).

Broadly, the Kd is the free concentration of one partner at which half of the binding sites on the other are occupied at equilibrium, for simple one-to-one binding. Lower therefore signals tighter binding.

Positions of bridges follow the written chain, without caps; N, C: chain ends. Non-standard residues stand in square brackets, D forms with d. Primed or numbered codes have the meaning given here. No end group written: not given here. PEG4′ = not defined here; NOTA′ = NOTA chelator

Test [1] concerns the target Integrin α6β4 protein. As to the kind of experiment: MST, dye-labelled integrin α6β4, run 1. As to the method:
(§1) The affinity between these 18 polypeptides and integrin α6β4 was detected by microscale thermophoresis (MST) method as follows: [0053] 1) Integrin α6β4 protein was dissolved to 800 nM, and polypeptide was dissolved to 100 μM. [0054] 2) A RED-tris-NTA second-generation dye was diluted to 100 nM by using the MO series RED-tris-NTA protein labeling kit. [0055] 3) 100 μl α6β4 protein was mixed with 50 μl dye and incubated at room temperature for 30 min, so that the α6β4 protein binds to the dye. [0056] 4) 10 μl polypeptide was transferred into a PCR tube, and was diluted with PBST (containing 0.05% Tween 20) at a ratio of 1:1 to 16 gradients of concentrations. [0057] 5) 3 μl protein/dye mixture was transferred into a PCR tube, 3 μl of 16 different concentrations of polypeptides was respectively added and mixed well. [0058] 6) The mixture was absorbed by capillary and loaded on machine (instrument model Monolith NT.115) to assay, parameters were set as 80% LED/excitation power and medium MST power. [0059] 7) MO. Affinity Analysis software was used to calculate the equilibrium dissociation constant KD between α6β4 protein and polypeptide by KD fitting mode.

Test [2] concerns the target Integrin α6β4 protein. As to the kind of experiment: MST, dye-labelled integrin α6β4, run 2. The protocol: as §1
Test [3] has as its target Integrin α6β4 protein. As to the kind of experiment: MST, dye-labelled integrin α6β4, run 3. The protocol:
as §1

Test [4] has as its target Integrin α6β4 protein. In words: MST, ratio of mean KD against …. The protocol:
as §1

Test [5] addresses Integrin α6β4 protein. As to the kind of experiment: MST, dye-labelled integrin α6β4, mean of 3 runs. As to the method:
as §1

The target in test [6] is Integrin α6β4 protein. In words: MST, integrin α6β4.
In test [7] the target is Integrin α6β1. As to the kind of experiment: MST (FIG. 2B), integrin α6β1.
Chain of Integrin α6β1 (chain, as listed by the source, chain 1 of 2): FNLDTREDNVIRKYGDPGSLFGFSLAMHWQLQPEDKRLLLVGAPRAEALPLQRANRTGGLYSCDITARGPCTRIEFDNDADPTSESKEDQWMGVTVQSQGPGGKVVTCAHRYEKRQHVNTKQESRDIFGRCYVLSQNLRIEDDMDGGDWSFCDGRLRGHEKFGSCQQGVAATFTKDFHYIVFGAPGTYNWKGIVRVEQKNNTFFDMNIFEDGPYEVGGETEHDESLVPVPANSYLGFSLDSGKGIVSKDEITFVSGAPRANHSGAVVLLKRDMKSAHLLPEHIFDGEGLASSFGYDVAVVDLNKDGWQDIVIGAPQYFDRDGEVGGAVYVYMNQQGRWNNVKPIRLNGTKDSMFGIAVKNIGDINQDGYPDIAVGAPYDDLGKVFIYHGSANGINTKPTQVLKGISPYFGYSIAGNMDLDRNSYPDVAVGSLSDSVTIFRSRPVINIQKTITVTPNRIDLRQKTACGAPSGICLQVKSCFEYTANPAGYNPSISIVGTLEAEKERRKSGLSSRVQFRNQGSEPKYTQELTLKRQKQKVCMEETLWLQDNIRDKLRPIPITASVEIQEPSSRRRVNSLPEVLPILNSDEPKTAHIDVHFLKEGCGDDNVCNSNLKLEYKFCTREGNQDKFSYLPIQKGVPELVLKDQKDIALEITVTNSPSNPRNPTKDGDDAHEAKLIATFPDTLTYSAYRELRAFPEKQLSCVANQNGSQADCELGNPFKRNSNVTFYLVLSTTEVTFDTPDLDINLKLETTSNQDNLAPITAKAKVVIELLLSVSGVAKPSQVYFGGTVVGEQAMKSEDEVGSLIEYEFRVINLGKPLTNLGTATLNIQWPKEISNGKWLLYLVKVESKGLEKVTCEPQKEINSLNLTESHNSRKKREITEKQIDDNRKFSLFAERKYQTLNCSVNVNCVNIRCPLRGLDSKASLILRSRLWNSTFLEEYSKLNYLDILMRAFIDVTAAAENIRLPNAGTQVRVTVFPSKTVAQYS
Chain of Integrin α6β1 (chain, as listed by the source, chain 2 of 2): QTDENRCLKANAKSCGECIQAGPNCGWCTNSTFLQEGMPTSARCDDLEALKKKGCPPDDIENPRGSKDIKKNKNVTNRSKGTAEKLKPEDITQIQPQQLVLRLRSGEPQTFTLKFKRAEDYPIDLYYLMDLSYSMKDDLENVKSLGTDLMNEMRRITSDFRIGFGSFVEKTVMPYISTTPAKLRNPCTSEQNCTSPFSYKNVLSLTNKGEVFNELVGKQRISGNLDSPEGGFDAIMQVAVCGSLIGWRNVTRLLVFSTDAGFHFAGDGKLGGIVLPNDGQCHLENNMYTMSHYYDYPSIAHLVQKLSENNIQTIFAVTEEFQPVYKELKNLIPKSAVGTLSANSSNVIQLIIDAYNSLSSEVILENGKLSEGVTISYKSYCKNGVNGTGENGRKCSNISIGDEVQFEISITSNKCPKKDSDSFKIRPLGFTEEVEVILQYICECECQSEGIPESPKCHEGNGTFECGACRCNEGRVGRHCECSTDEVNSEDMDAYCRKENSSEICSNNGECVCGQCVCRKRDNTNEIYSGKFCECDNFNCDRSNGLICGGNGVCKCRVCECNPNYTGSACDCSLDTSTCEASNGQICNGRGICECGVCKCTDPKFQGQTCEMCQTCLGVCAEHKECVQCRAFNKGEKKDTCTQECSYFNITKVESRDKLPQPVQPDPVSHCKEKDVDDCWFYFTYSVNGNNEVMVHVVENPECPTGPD
Test [8] addresses Integrin α6β4 protein. As to the kind of experiment: MST, dye-labelled integrin α6β4; unrounded mean of the table's 0.02 µM. As to the method:
as §1

In the case of CAWYDENAC (disulfide 1-9 (inferred), also called P2), the Kd in test [1] was determined as 4.03 µM; in test [2], 12.1 µM; in test [3], 3.58 µM; in test [5], 6.58 µM. For the same molecule, the “Affinity relative to RWY” value in test [4] was 1.06 fold.

B1: RWYD-PEG4-K-NOTA (peptide)
peptide: RWYD[PEG4′]K-{NOTA′}
notes: The unlabelled form was used in MST; also called RD
For B1, in test [6], the Kd was 0.642 µM.
For CRWYDENAC (disulfide 1-9 (inferred), also called P1), the Kd in test [1] was determined as 8.59 µM; in test [2], 6.52 µM; in test [3], 5.81 µM; in test [5] it was 6.97 µM. The “Affinity relative to RWY” value in test [4] was found to be 1 fold.

B2: (RWYD-PEG4)2-K-K-NOTA (peptide)
peptide: RWYD
modifications: not fully specified; each RWYD carries PEG4 at its C-terminus; two RWYD-PEG4 units are joined through lysine, followed by K-NOTA: (RWYD-PEG4)2-K-K-NOTA
notes: also called RD2; RD2 dimer
As to B2, in test [6], the Kd was 0.0648 µM and the “fold increase of affinity against RWYD-PEG4-K-NOTA” value was around 10 fold.
Turning to CRWYDANAC (disulfide 1-9 (inferred), also called P6), the dissociation constant (Kd) was 1.21 µM in test [1], 7.99 µM in test [2], 3.83 µM in test [3] and 4.34 µM in test [5]. Further, the “Affinity relative to RWY” value in test [4] is 1.61 fold.
The like results for RWYDEA (Straight-chain peptide; also called P12) were, in that order, 5.26 µM, 2.49 µM, 1.74 µM, 3.16 µM and 2.2 fold.
Turning to RWYDEN (Straight-chain peptide; also called P9), the Kd amounted to 9.69 µM in test [1], 8.73 µM in test [2], 13.1 µM in test [3] and 10.5 µM in test [5]. Besides, the “Affinity relative to RWY” value in test [4] was 0.66 fold.

B3: RWYD (peptide)
peptide: RWYD
notes: also called P15; linear quaternary polypeptide RWYD
For B3, the Kd in test [7] was 0.0531 µM; in test [1], 0.02 µM; in test [2] it was 0.018 µM; in test [3], 0.026 µM; in test [5], 0.02 µM; in test [8], 0.0218 µM. Moreover, in test [4], the “Affinity relative to RWY” value was determined as 327 fold.
In the case of RWYDAN (Straight-chain peptide; also called P11), the Kd in test [1] turned out to be 34.6 µM; in test [2], 23.2 µM; in test [3] it was 35.7 µM; in test [5] it was 31.2 µM. Besides, in test [4], the “Affinity relative to RWY” value amounted to 0.22 fold.
For the molecule RWYDANA (Straight-chain peptide; also called P10), the Kd in test [1] stood at 62.1 µM; in test [2] it was 17.5 µM; in test [3], 12.4 µM; in test [5], 30.7 µM. The “Affinity relative to RWY” value in test [4] stood at 0.23 fold.
In the same order, the values of RWYAEN (Straight-chain peptide; also called P16) are 7.31 µM, 6.08 µM, 9.74 µM, 7.71 µM and 0.9 fold.
In the same order, the values of CRWYAENAC (disulfide 1-9 (inferred), also called P5) are 0.36 µM, 0.22 µM, 0.65 µM, 0.41 µM and 17 fold.
As for RWYDE (Straight-chain peptide; also called P13), the Kd in test [1] is 14.7 µM; in test [2], 78.8 µM; in test [3], 99.6 µM; in test [5], 64.4 µM. Besides, the “Affinity relative to RWY” value in test [4] was 0.11 fold.
In the same order, the values of RWYDA (Straight-chain peptide; also called P14) are 6.28 µM, 4.69 µM, 4.22 µM, 5.06 µM and 1.38 fold.
In the case of CRAYDENAC (disulfide 1-9 (inferred), also called P3), the Kd in test [1] is 14.4 µM; in test [2], 11.8 µM; in test [3] it was 13.8 µM; in test [5], 13.3 µM. Besides, in test [4], the “Affinity relative to RWY” value came to 0.52 fold.
With CRWYDEAAC (disulfide 1-9 (inferred), also called P7), the Kd in test [1] was determined as 0.25 µM; in test [2] it was 0.25 µM; in test [3] it was 1.37 µM; in test [5] it was 0.62 µM. The “Affinity relative to RWY” value in test [4] stood at 11.2 fold.
